Seven molecules from publication doi:10.1101/2023.09.30.560296 (bioRxiv, 2023) can be followed below.

In assay [1] the target is T1, GST-fused LC3B (UniProt Q9GZQ8 1-120). The assay can be described thus: Microfluidic Diffusional Sizing.
In assay [2] the target is T1, GST-fused LC3B. The assay can be described thus: SPR. For orientation: Surface plasmon resonance follows binding to a sensor surface in real time, without labels.

Where “and” joins values, the source holds several entries; their conditions need not be identical. Equal entries are not always repeated. Square brackets hold non-standard residues; d marks the D form. Ends that are not written are not given here. * marks the point of attachment. FITC = O=C1OC2(c3ccc(O)cc3Oc3cc(O)ccc32)c2ccc(NC(=S)*)cc21; pS = N[C@@H](COP(=O)(O)O)C(=O)O; Ahx = NCCCCCC(=O)O

As a reminder, the Kd is the free concentration of one partner at which half of the binding sites on the other are occupied at equilibrium, for simple one-to-one binding. Low readings indicate a tighter complex, high ones a looser complex.

Turning to {FITC-Ahx}-NSSGSSED[pS]FVEIRMAE [FITC-Ahx OPTN LIR peptide 169-185 (pS177)], in the assay with GST-fused LC3B [1], the Kd is 14.3 µM and 13.7 µM.
The molecule {FITC-Ahx}-NSSGSSEDSWVEIRMAE [FITC-Ahx OPTN LIR peptide 169-185 (F178W)] came in with a Kd with GST-fused LC3B [1] of 15.9 µM.
With {FITC-Ahx}-NSSGSSED[pS]FVEIRAAE [FITC-Ahx OPTN LIR peptide 169-185 (pS177 M183A)], the Kd with GST-fused LC3B [2] turned out to be 36.7 µM.
In the case of {FITC-Ahx}-NSSGSSED[pS]AVEIRMAE [FITC-Ahx OPTN LIR peptide 169-185 (pS177 F178A)], in the assay with GST-fused LC3B [2], the Kd was more than 100 µM. Besides, the “fold increase of Kd against pS177” value with GST-fused LC3B [1] came to 5 fold.
{FITC-Ahx}-NSSGSSEDEFVEIRMAE [FITC-Ahx OPTN LIR peptide 169-185 (S177E)] came in with a Kd with GST-fused LC3B [1] of 42.8 µM.
For {FITC-Ahx}-NSSGSSEDDFVEIRMAE [FITC-Ahx OPTN LIR peptide 169-185 (S177D)], the Kd with GST-fused LC3B [2] amounted to 36.7 µM; with GST-fused LC3B [1] it was 44.8 µM.
As for {FITC-Ahx}-NSSGSSED[pS]WVEIRMAE [FITC-Ahx OPTN LIR peptide 169-185 (pS177 F178W)], the “fold increase of binding affinity against pS177” value with GST-fused LC3B [1] came to 7 fold.
